± gives the standard deviation of the averaged measurements.
What follows are sequences tested on Saccharomyces cerevisiae (assay: protein stability index of tFT-peptide fusion (C-terminal peptide) (PSI (0-1 scale)); higher = more stable (slower turnover)). Conditions: genetic background: wild type; temperature: 30 C.
Experimental: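 Multiplexed protein stability (MPS) profiling in S. cerevisiae. Random 12-aa peptides (tFT-X12 library) are fused to the C-terminus of a sfGFP-mCherry tandem fluorescent timer, after mCherry and a GGGS linker. Cells are FACS-sorted into 8 mCherry/sfGFP bins and deep-sequenced. The protein stability index (PSI) is the read-weighted bin average, scaled from 0 (unstable) to 1 (stable). Only peptides with >10 reads are reported; cells were grown at 30 °C in SC-His with glucose.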
EWQAGSDRRFYW showed a protein stability index of 0.618 ± 0.013.
In the case of GRRGGRLSWAPG, the protein stability index is reported as 0.659 ± 0.017.
In the case of VLILDVSFPRCD, the protein stability index is reported as 0.766 ± 0.18.
Work on RESVSPCLVGAV yielded a protein stability index of 0.616 ± 0.056.
Sequence NPLRVRNNNDGL has a protein stability index of 0.745 ± 0.047.
For ISEGKTIIYCLW, the protein stability index was 0.523 ± 0.081.
For ARNVDNIGYENS, the protein stability index was 0.698 ± 0.013.
PPHLFLPSSMPF was tested, and the protein stability index was 0.693 ± 0.015.
For EKNTNVDHNRNF, the protein stability index was 0.7384 ± 0.0061.
Work on TPAMPRNPTDDS yielded a protein stability index of 0.651 ± 0.0068.
Sequence RLLLSVLFGFFA has a protein stability index of 0.5248 ± 0.0011.
PPSPSLPPPPRS was tested, and the protein stability index was 0.699 ± 0.055.
For KPKHNKKILEKK, the protein stability index was 0.671 ± 0.037.
RHPALPGPPGSS was tested, and the protein stability index was 0.698 ± 0.13.
With LGFPLPRTPSIT the protein stability index was 0.792 ± 0.06.
In the case of VRLLGVGGGFTC, the protein stability index is reported as 0.701 ± 0.038.
With PGSCAYHIFRFR the protein stability index was 0.583 ± 0.0062.
With AHFSRRSSSSVS the protein stability index was 0.7 ± 0.02.
LLQSPRLGQEWA gave a protein stability index of 0.6928 ± 0.0028.
KSKGGGTEPNRR was tested, and the protein stability index was 0.695 ± 0.009.
LRAWAAPPPHGL was tested, and the protein stability index was 0.727 ± 0.076.
Work on CMFRCCLRSLVL yielded a protein stability index of 0.639 ± 0.0064.
GLQFRPFCVLEL showed a protein stability index of 0.634 ± 0.013.
VPGYLLIDFWWV showed a protein stability index of 0.5707 ± 0.001.
TVFPVLTTVEGL gave a protein stability index of 0.688 ± 0.03.
CGGRWGTYYRRV showed a protein stability index of 0.7 ± 0.042.
For RSPSCSPSAVPL, the protein stability index was 0.738 ± 0.063.
SRISSGKFTGAV showed a protein stability index of 0.601 ± 0.041.
GASSSPAQGCSL gave a protein stability index of 0.691 ± 0.048.
In the case of PPPRPRLSRLLH, the protein stability index is reported as 0.6114 ± 0.0012.
Work on VEGCVKGGCGGG yielded a protein stability index of 0.662 ± 0.052.
Work on PPPFPSPLPPPP yielded a protein stability index of 0.678 ± 0.0097.
CFSMGKRGLRGR gave a protein stability index of 0.686 ± 0.026.
For WLVSPPTPFPLP, the protein stability index was 0.6422 ± 0.0039.
In the case of RLGRATLLLLFF, the protein stability index is reported as 0.572 ± 0.12.
SPPPPPPRPPPP was tested, and the protein stability index was 0.691 ± 0.015.
CILPFFFFVSPD gave a protein stability index of 0.652 ± 0.084.
RHILFLLLTPHS was tested, and the protein stability index was 0.5774 ± 0.0026.
Work on HMLVCPLAALGI yielded a protein stability index of 0.6884 ± 0.0031.
ENLFLRRVWFCR was tested, and the protein stability index was 0.686 ± 0.022.
Sequence KKKKTKKKKINI has a protein stability index of 0.605 ± 0.0077.
In the case of DRLTLEKKGRGM, the protein stability index is reported as 0.684 ± 0.016.
Sequence APPVILPPSGPP has a protein stability index of 0.654 ± 0.028.
With CARYFFLHPSLG the protein stability index was 0.67961 ± 1.3e-05.
With QTTKEQQKKSYK the protein stability index was 0.665 ± 0.053.
NETVIATLGKGA was tested, and the protein stability index was 0.657 ± 0.037.
With FLPLPRPRLLLP the protein stability index was 0.617 ± 0.0076.
Sequence FLVSPFTLFPFS has a protein stability index of 0.754 ± 0.12.
IPSHSVLCLSIY gave a protein stability index of 0.497 ± 0.042.
With PPLQRFSYRPGR the protein stability index was 0.754 ± 0.069.
TRSADGFLGVMV was tested, and the protein stability index was 0.739 ± 0.0092.
With GGWGCWQAGGLT the protein stability index was 0.7444 ± 0.0016.
AGSLCSVVFFSG showed a protein stability index of 0.688 ± 0.23.
With LSPLGLGPLLPP the protein stability index was 0.68 ± 0.048.
VMNHYCRFPVST gave a protein stability index of 0.598 ± 0.023.
In the case of GRVFRGRNGRCM, the protein stability index is reported as 0.7443 ± 0.0067.
VGSCGGGKVVVE gave a protein stability index of 0.6555 ± 0.00076.
With FGRSGDGVGGLA the protein stability index was 0.667 ± 0.026.
For RLQSSRQMLVPS, the protein stability index was 0.63729 ± 0.00036.
APPRPHTPLPRP showed a protein stability index of 0.75 ± 0.07.
With KVSCGGAGDSLG the protein stability index was 0.693 ± 0.022.
Sequence APAFLSLVSFAS has a protein stability index of 0.673 ± 0.017.
Work on GVAISSGNHINH yielded a protein stability index of 0.654 ± 0.12.
With KKKLKRTIKKIA the protein stability index was 0.481 ± 0.034.
With LAGVEMWVGLEV the protein stability index was 0.61 ± 0.059.
LCAPPPSLSPFV was tested, and the protein stability index was 0.708 ± 0.025.
WWGFGRVCGGGV gave a protein stability index of 0.774 ± 0.092.
In the case of ARRRINKKIKKV, the protein stability index is reported as 0.554 ± 0.018.
LALKYLGQLIGA showed a protein stability index of 0.594 ± 0.024.
In the case of RSFYDNVLRPFK, the protein stability index is reported as 0.776 ± 0.035.
With PSPLAPPPRLPV the protein stability index was 0.733 ± 0.049.
Work on RCPLSFLRCSMA yielded a protein stability index of 0.586 ± 0.018.
In the case of DLERRKGTGVWR, the protein stability index is reported as 0.6366 ± 0.0051.
In the case of SPGSVIVSASLL, the protein stability index is reported as 0.651 ± 0.039.
For KKKIERKKNKEK, the protein stability index was 0.743 ± 0.071.
In the case of PLLSYSPPAPPP, the protein stability index is reported as 0.664 ± 0.024.
Work on RPFPLTRPTLLF yielded a protein stability index of 0.67 ± 0.016.
KKKKKKRNKQKN gave a protein stability index of 0.752 ± 0.043.
WENMDKCSKGLI gave a protein stability index of 0.6767 ± 0.0033.
Sequence VAPPLAPSPPLP has a protein stability index of 0.6678 ± 0.0013.
For YTKFASLKRHTQ, the protein stability index was 0.636 ± 0.034.
For RGRGGGGVVGRW, the protein stability index was 0.7119 ± 0.0022.
LVVSITGRFRRF gave a protein stability index of 0.69 ± 0.03.
Work on DTRNKHTKSKCQ yielded a protein stability index of 0.741 ± 0.051.
With PPARLPLPPPSP the protein stability index was 0.753 ± 0.061.
For YTTLLVSTNRLS, the protein stability index was 0.477 ± 0.082.
KKEEQEKKNRNK was tested, and the protein stability index was 0.711 ± 0.027.
AIVWGVGCGSVG was tested, and the protein stability index was 0.738 ± 0.12.
Sequence YIDDGVVENVRV has a protein stability index of 0.681 ± 0.02.
GGVSRRVNGREA gave a protein stability index of 0.708 ± 0.008.
In the case of PLTSNTSPPPMT, the protein stability index is reported as 0.618 ± 0.072.
AGLTGSREGWRG showed a protein stability index of 0.638 ± 0.041.
WGAGGGGWWGGV gave a protein stability index of 0.731 ± 0.03.
For RLFPSPIYLARF, the protein stability index was 0.676 ± 0.12.
EKNDKEYKRSIS gave a protein stability index of 0.665 ± 0.06.
Sequence PGWDSHRKILSQ has a protein stability index of 0.68 ± 0.0083.
With RSYSSTGAGDDK the protein stability index was 0.721 ± 0.15.
WALRADGGERTG was tested, and the protein stability index was 0.684 ± 0.021.
In the case of KKKREKKKENTK, the protein stability index is reported as 0.7108 ± 0.0067.
TGSKKKKVEIEM showed a protein stability index of 0.679 ± 0.048.
With DFLRCPPLFEFS the protein stability index was 0.721 ± 0.087.
Sequence ALYQNWITITRN has a protein stability index of 0.657 ± 0.022.
Sequence KGWGDGPGSYVN has a protein stability index of 0.68 ± 0.035.
In the case of LGYGERAGVGKR, the protein stability index is reported as 0.6954 ± 0.0049.
Work on SCDIFIYTHLVS yielded a protein stability index of 0.612 ± 0.031.
For LPPPPPAFLDSF, the protein stability index was 0.691 ± 0.065.
For KKKRMKIKCIGI, the protein stability index was 0.647 ± 0.063.
In the case of PTLLRRVPPVPL, the protein stability index is reported as 0.677 ± 0.087.
ERKHIISKGMNN was tested, and the protein stability index was 0.608 ± 0.041.
With DPYYGFRMRIPF the protein stability index was 0.691 ± 0.026.
For FCSCSCEFVPRS, the protein stability index was 0.618 ± 0.039.
Work on GGTSVLPPAVLF yielded a protein stability index of 0.762 ± 0.004.
Sequence PPPPPPLPSLPR has a protein stability index of 0.678 ± 0.089.
KKTQKNIKKKAK showed a protein stability index of 0.679 ± 0.025.
KKSIVEARLSNM was tested, and the protein stability index was 0.58 ± 0.075.
PAKTEPGPLNHR showed a protein stability index of 0.68 ± 0.02.
For APPPRPLKLFPP, the protein stability index was 0.611 ± 0.028.
For KKKKTKKSKQKK, the protein stability index was 0.721 ± 0.0089.
Work on SYLWRINVSGCV yielded a protein stability index of 0.6955 ± 0.0013.
In the case of RSSNRRAIRSHD, the protein stability index is reported as 0.7106 ± 0.0019.
In the case of CVGQYVHWDLLV, the protein stability index is reported as 0.549 ± 0.011.
DGAVCSAFASIF showed a protein stability index of 0.701 ± 0.0089.
With PPPTLPPPPPAL the protein stability index was 0.711 ± 0.033.
With EEEGRRREEETS the protein stability index was 0.67 ± 0.041.
LWAYRFAAGEVH gave a protein stability index of 0.589 ± 0.08.
Work on CASPSPPPAPVL yielded a protein stability index of 0.68 ± 0.022.
RGSAPLFVPLSP gave a protein stability index of 0.7106 ± 0.0069.
Sequence EYCSSCLADLSP has a protein stability index of 0.69 ± 0.074.
With GPSATPPGPGLR the protein stability index was 0.792 ± 0.052.
Sequence SSRLLRGGTGFL has a protein stability index of 0.722 ± 0.029.
Sequence GGGVSFWLGGVA has a protein stability index of 0.633 ± 0.045.
HARAGTKPLTGY gave a protein stability index of 0.678 ± 0.0092.
VLVGRAGIVFLG was tested, and the protein stability index was 0.573 ± 0.04.
ISLTSYVCGRVL showed a protein stability index of 0.648 ± 0.014.
In the case of YYPLRIADQNGN, the protein stability index is reported as 0.795 ± 0.054.
PIPPHGTPPAAY gave a protein stability index of 0.694 ± 0.036.
GFRALRCPTAFS showed a protein stability index of 0.742 ± 0.078.
With AVYRPFPFRSGI the protein stability index was 0.699 ± 0.015.
Sequence LLFFFTWCLCCF has a protein stability index of 0.569 ± 0.028.
Sequence KKKKNNKETKNK has a protein stability index of 0.705 ± 0.015.
In the case of DTTSSPPLPLLV, the protein stability index is reported as 0.623 ± 0.035.
Sequence WGEGSGRVWEIS has a protein stability index of 0.679 ± 0.019.
In the case of RARSFINSFSQS, the protein stability index is reported as 0.671 ± 0.018.
For VLGDSASFWSCP, the protein stability index was 0.765 ± 0.15.
In the case of LMGFVASGGDDM, the protein stability index is reported as 0.786 ± 0.1.
RVMELEGRSKLK showed a protein stability index of 0.633 ± 0.026.

— the supplement of paper PMC10724198
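Further: PSI is a weighted mean of sequencing reads over stability bins, variants kept only with over 10 reads, mCherry proximal and sfGFP distal, peptide attached via GGGS linker.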
